Square brackets hold non-standard residues; d marks the D form. Ends that are not written are not given here. * marks the point of attachment. 5‑TMR = 5'-carboxytetramethylrhodamine, CN(C)c1ccc2c(-c3ccc(C(=O)*)cc3C(=O)[O-])c3ccc(=[N+](C)C)cc-3oc2c1; rhodamine X acetamide = R492, linked via the cysteine sulfhydryl; Fmoc = O=C(OCC1c2ccccc2-c2ccccc21)*; Nle = CCCC[C@H](N)C(=O)O; Aib = CC(C)(N)C(=O)O; Ahx = NCCCCCC(=O)O
T1: CPP32 protease (human (Jurkat cells), UniProt P42574 29-277)
T1 sequence (looked up): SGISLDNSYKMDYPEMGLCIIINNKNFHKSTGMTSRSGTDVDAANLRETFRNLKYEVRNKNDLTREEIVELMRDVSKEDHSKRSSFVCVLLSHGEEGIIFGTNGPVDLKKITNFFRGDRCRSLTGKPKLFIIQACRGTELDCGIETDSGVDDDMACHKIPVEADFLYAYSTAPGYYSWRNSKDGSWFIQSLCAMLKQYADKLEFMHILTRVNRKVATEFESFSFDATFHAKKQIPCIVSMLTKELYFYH


How the values were obtained:
[1] = target: elastase; experiment: cell-based or functional assay
[2] = target: T1, CPP32 protease; experiment: cell-based or functional assay

Binder	increase in fluorescence at 589 nm after treatment with elastase [1] [fold]	increase in fluorescence within the first 1000 seconds of exposure to elastase [1] [fold]	increase in fluorescence intensity in anti-Fas-activated Jurkat cells (flow cytometry) [2] [fold]
{5‑TMR}-DAIP[Nle]SIPC(rhodamine X acetamide) [D-NorFES-A protease indicator, F1-Asp-Ala-Ile-Pro-Nle-Ser-Ile-Pro-Cys-F2]	> 10	> 5	–
Fmoc-K(carboxytetramethylrhodamine)D[Aib][Ahx]GDEVDGIDG[Ahx]PK(carboxytetramethylrhodamine)GY [Fm-CGD2D, Fm-K[F1]DBJGDEVDGIDGJPK[F1]GY (compound 11 of Table 12)]	–	–	≤ 10

Reference: patent publication US20090325168A1 (ONCOIMMUNIN, published 2009)
